Source: patent US20170097333A1 (Merck Sharp & Dohme, published 2017)
One block for each molecule: values may come before it.

Tests used:
human CD3 (human) [1] = biological target: human CD3 (human) (UniProt P07766); assay: FACS staining of Jurkat clone D7, relative to control antibody mIgG1 pacblue
human CD3 (human) [2] = biological target: human CD3 (human) (UniProt P07766); assay: FACS staining of Jurkat clone G10, relative to control antibody mIgG1 pacblue
human CD3 (human) [3] = biological target: human CD3 (human) (UniProt P07766); assay: FACS staining of Jurkat clone G10 (passage P17), relative to control antibody mIgG1-pacblue
human CD3 (human) [4] = biological target: human CD3 (human) (UniProt P07766); assay: FACS staining of Jurkat clone G10 (passage P14), relative to control antibody mIgG1-pacblue
human CD3 (human) [5] = biological target: human CD3 (human) (UniProt P07766); assay: FACS staining of Jurkat clone F5, relative to control antibody mIgG1 pacblue
human CD3 (human) [6] = biological target: human CD3 (human) (UniProt P07766); assay: FACS staining of Jurkat clone A1, relative to control antibody mIgG1 pacblue
human CD3 (human) [7] = biological target: human CD3 (human) (UniProt P07766); assay: FACS staining of Jurkat clone G3, relative to control antibody mIgG1 pacblue
human CD3 (human) [8] = biological target: human CD3 (human) (UniProt P07766); assay: FACS staining of Jurkat clone G10 (passage P12), relative to control antibody mIgG1-pacblue
human CD3 (human) [9] = biological target: human CD3 (human) (UniProt P07766); assay: FACS staining of Jurkat clone H3, relative to control antibody mIgG1 pacblue
human CD3 (human) [10] = biological target: human CD3 (human) (UniProt P07766); assay: FACS staining of Jurkat clone G10 (passage P4), relative to control antibody mIgG1-pacblue
human CD3 (human) [11] = biological target: human CD3 (human) (UniProt P07766); assay: FACS staining of Jurkat clone G10 (passage ~P3), relative to control antibody mIgG1-pacblue
human CD3 (human) [12] = biological target: human CD3 (human) (UniProt P07766); assay: FACS staining of Jurkat clone G10 (passage P6), relative to control antibody mIgG1-pacblue
human CD3 (human) [13] = biological target: human CD3 (human) (UniProt P07766); assay: FACS staining of Jurkat clone F11, relative to control antibody mIgG1 pacblue
human CD3 (human) [14] = biological target: human CD3 (human) (UniProt P07766); assay: FACS staining of Jurkat clone E6, relative to control antibody mIgG1 pacblue
human LAG3 [15] = biological target: T1, human LAG3 (human, UniProt P18627 23-525); assay: FACS staining of human LAG3 Jurkat clone G10 (passage P6), relative to control antibody Herceptin-DyLight 650
T1 construct: Expressed from a transgene on Jurkat cells
T1 sequence: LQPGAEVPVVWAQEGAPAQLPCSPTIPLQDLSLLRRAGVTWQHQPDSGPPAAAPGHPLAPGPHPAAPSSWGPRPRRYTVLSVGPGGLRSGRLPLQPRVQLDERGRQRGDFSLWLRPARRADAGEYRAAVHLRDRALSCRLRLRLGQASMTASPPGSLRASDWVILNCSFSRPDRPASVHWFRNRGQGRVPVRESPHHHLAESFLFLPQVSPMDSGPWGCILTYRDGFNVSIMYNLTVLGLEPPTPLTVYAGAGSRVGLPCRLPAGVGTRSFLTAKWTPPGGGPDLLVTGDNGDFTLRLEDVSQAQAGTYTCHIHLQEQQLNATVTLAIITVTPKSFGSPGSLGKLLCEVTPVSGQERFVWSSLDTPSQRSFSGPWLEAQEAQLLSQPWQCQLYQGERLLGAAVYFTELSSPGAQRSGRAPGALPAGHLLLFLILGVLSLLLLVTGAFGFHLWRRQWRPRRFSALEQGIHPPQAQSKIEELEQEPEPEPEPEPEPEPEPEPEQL

human LAG3 [16] = biological target: T1, human LAG3; assay: FACS staining of human LAG3 Jurkat clone G10 (passage P17), relative to control antibody Herceptin-DyLight 650
human LAG3 [17] = biological target: T1, human LAG3; assay: FACS staining of human LAG3 Jurkat clone G10 (passage P4), relative to control antibody Herceptin-DyLight 650
human LAG3 [18] = biological target: T1, human LAG3; assay: FACS staining of human LAG3 Jurkat clone G10 (passage P14), relative to control antibody Herceptin-DyLight 650
human LAG3 [19] = biological target: T1, human LAG3; assay: FACS staining of human LAG3 Jurkat clone G10 (passage P12), relative to control antibody Herceptin-DyLight 650
human LAG3 [20] = biological target: T1, human LAG3; assay: FACS staining of human LAG3 Jurkat clone G10 (passage ~P3), relative to control antibody Herceptin-DyLight 650

Sequence of human CD3 (human) (P07766 23-207): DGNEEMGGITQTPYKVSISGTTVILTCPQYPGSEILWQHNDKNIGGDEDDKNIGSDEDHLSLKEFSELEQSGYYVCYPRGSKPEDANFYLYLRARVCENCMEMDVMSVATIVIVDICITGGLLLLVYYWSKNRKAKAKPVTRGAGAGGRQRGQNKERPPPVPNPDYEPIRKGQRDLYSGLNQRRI

- CD3 expression (Fold Change) (human CD3 (human) [1]): 3.4 fold
- CD3 expression (Fold Change) (human CD3 (human) [2]): 8.4 fold
- CD3 expression (Fold Change) (human CD3 (human) [3]): 4.7 fold
- CD3 expression (Fold Change) (human CD3 (human) [4]): 6.9 fold
- CD3 expression (Fold Change) (human CD3 (human) [5]): 7.5 fold
- CD3 expression (Fold Change) (human CD3 (human) [6]): 3.5 fold
- CD3 expression (Fold Change) (human CD3 (human) [7]): 5.3 fold
- CD3 expression (Fold Change) (human CD3 (human) [8]): 6.4 fold
- CD3 expression (Fold Change) (human CD3 (human) [9]): 5 fold
- CD3 expression (Fold Change) (human CD3 (human) [10]): 7.2 fold
- CD3 expression (Fold Change) (human CD3 (human) [11]): 10.9 fold
- CD3 expression (Fold Change) (human CD3 (human) [12]): 8 fold
- CD3 expression (Fold Change) (human CD3 (human) [13]): 3.9 fold
- CD3 expression (Fold Change) (human CD3 (human) [14]): 8.5 fold
Molecule: maHuCD3 pacblue (mouse anti-human CD3E antibody Clone SP34-2)

- Lag3 Expression (Fold Change) (human LAG3 [15]): 2 fold
- Lag3 Expression (Fold Change) (human LAG3 [16]): 7.3 fold
- Lag3 Expression (Fold Change) (human LAG3 [17]): 5.6 fold
- Lag3 Expression (Fold Change) (human LAG3 [18]): 7.2 fold
- Lag3 Expression (Fold Change) (human LAG3 [19]): 7.3 fold
- Lag3 Expression (Fold Change) (human LAG3 [20]): 6.1 fold
B1: Ab6: humanized anti-human LAG3 VH6 N55D/VL3, IgG4 S228P/Kappa (antibody, V domains shown)
VH: QMQLVQSGPEVKKPGTSVKVSCKASGYTFTDYNVDWVRQARGQRLEWIGDINPNDGGTIYAQKFQERVTITVDKSTSTAYMELSSLRSEDTAVYYCARNYRWFGAMDHWGQGTTVTVSS
VL: DIVMTQTPLSLSVTPGQPASISCKASQSLDYEGDSDMNWYLQKPGQPPQLLIYGASNLESGVPDRFSGSGSGTDFTLKISRVEAEDVGVYYCQQSTEDPRTFGGGTKVEIKR
notes: also called 51AHH; light chain 45AGX
